The text below walks through data of US20100330076A1 (RESEARCH DEVELOPMENT FOUNDATION, published 2010).

Positions count from the first letter of the chain named.

B1: Fc611 (other)
chain: DKTHTCPPCPAPELLGGPSVFLFPPKPKDTLMISRTPEVTCVVVDVSHEDPEVKFNWYVDGVEVHNAKTKPREEQYNSTYRVVSVLTVLHQDWLNGKEYKCKVSNKALPAPIEKTISKAKVQPREPQVYTLPPSRDELTKNQVSLTCLVKGFYPSDIAVEWVSNGQPENNYKTTPPVLDSDGSFFLYSKLTVDKSRWQQGNVFSCSVIHEALHNHYTQKSLSLSPGK
notes: Aglycosylated Fc fragment (E. coli, pPelBFLAG), assayed on spheroplasts; not shown: C-terminal FLAG tag from pPelBFLAG
B2: Fc701 (other)
chain: B1 chain with Q75R, L108W, A110V, P111A, I112Y, V121G
notes: Aglycosylated Fc fragment (E. coli, pPelBFLAG), assayed on spheroplasts; also called IgG1-Fc701; not shown: C-terminal FLAG tag from pPelBFLAG
B3: Fc614 (other)
chain: B1 chain with N66D, N214S
notes: as for B1
B4: Fc707 (other)
chain: B1 chain with L108W, A110E, I112Y, V121G
notes: as for B1
B5: Fc703 (other)
chain: B1 chain with L108W, A110E, P111E, I112Y, V121G
notes: as for B1
B6: Fc706 (other)
chain: B1 chain with L108W, A110I, P111E, I112Y, V121G
notes: as for B1
B7: Fc619 (other)
chain: B1 chain with V46M, V121G
notes: as for B1
B8: Fc616 (other)
chain: B1 chain with Y80C
notes: as for B1
B9: Fc702 (other)
chain: B1 chain with V59M, L108W, A110E, P111E, I112Y, V121G
notes: as for B1
B10: Fc601 (other)
chain: B1 chain with K118R
notes: Aglycosylated Fc fragment (E. coli, pPelBFLAG), assayed on spheroplasts; also called IgG1-Fc601; not shown: C-terminal FLAG tag from pPelBFLAG
B11: Fc618 (other)
chain: B1 chain with V121G, N214S
notes: as for B1
B12: Fc613 (other)
chain: B1 chain with V149A
notes: as for B1
B13: Fc617 (other)
chain: B1 chain with V128M
notes: as for B1
B14: Fc615 (other)
chain: B1 chain with N105S
notes: as for B1
B15: Fc705 (other)
chain: B1 chain with L108W, A110E, P111V, I112Y, V121G
notes: as for B1
B16: Fc609 (other)
chain: B1 chain with K118R, S204L, N214D
notes: as for B1
B17: Fc704 (other)
chain: B1 chain with L108W, A110E, P111V, I112Y, V121G, S206T
notes: as for B1
B18: Fc610 (other)
chain: B1 chain with F21L
notes: as for B1
B19: Fc612 (other)
chain: B1 chain with N56D
notes: as for B1
B20: Fc708 (other)
chain: B1 chain with L108W, P111S, I112Y, V121G
notes: as for B1
B21: Fc606 (other)
chain: B1 chain with N105S, K120N, V121G
notes: as for B1
B22: Fc608 (other)
chain: B1 chain with K172E
notes: as for B1
B23: Fc604 (other)
chain: B1 chain with K118I, K120N, V121G
notes: as for B1
B24: Fc605 (other)
chain: B1 chain with K120Q, V121G, A158D
notes: as for B1
B25: Fc602 (other)
chain: B1 chain with N77D, N95D, K120N, V121G
notes: as for B1
B26: Fc607 (other)
chain: B1 chain with H4Y, E49K, N105S
notes: as for B1
B27: Fc603 (other)
chain: B1 chain with K120N, V121G
notes: as for B1

In one assay the target is T1, extracellular domain of recombinant glycosylated FcγRIa/CD64 (R&D Systems) labeled with FITC (human, UniProt P12314 16-292, FITC-labeled; glycosylated).
T1 construct: extracellular domain; it is not restated for the bought reagent; also called FcγRIa-FITC; FcγRI-FITC
T1 sequence (P12314 16-292): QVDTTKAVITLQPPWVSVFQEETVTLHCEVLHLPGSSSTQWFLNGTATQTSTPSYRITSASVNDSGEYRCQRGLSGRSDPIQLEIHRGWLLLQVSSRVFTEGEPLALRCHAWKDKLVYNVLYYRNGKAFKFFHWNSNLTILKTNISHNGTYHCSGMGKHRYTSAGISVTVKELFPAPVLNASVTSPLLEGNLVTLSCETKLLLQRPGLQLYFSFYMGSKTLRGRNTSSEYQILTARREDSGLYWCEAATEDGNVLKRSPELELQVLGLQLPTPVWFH
The assay can be described thus: flow cytometry of E. coli spheroplasts expressing the Fc fragment, labeled with FcγRIa-FITC.
On to B1, for which the binding result is reported as “binds”.
With B2, the binding result is listed as “binds”.
Turning to B3, the binding result was “binds”.
Still for that read-out and setting: as for B4, the entry is “binds”.
The same measure, in the same setting: under B5 stands “binds”; under B6, “binds”.
B7: the binding result is given as “binds”.
B8: the binding result is recorded as “binds”.
For the molecule B9, the binding result was “binds”.
Turning to B10, the binding result is “binds”.
On the same count and under the same terms, under B11 stands “binds”; under B12, “binds”; under B13, “binds”.
Turning to B14, the binding result is given as “binds”.
With B15, the binding result is reported as “binds”.
As to B16, the binding result is given as “binds”.
As to B17, the binding result is given as “binds”.
With B18, the binding result was “binds”.
Take B19: the binding result was “binds”.
On the same count and under the same terms, under B20 stands “binds”.

The target of another assay is T1, extracellular domain of recombinant …. The assay can be described thus: flow cytometry of E. coli spheroplasts labeled with FcγRIa-FITC (summary in Example 3). Background: In flow cytometry, cells or beads pass a laser one at a time.
Consider B21, for which the binding result was “binds”.
In the case of B22, the binding result is on record as “binds”.
In the case of B23, the binding result is “binds”.
With B24, the binding result is reported as “binds”.
The same measure, in the same setting: as for B25, the entry is “binds”; as for B26, “binds”; as for B27, “binds”.
